Measurements as given in patent publication US20260035458A1 (Astellas, published 2026).

T1: human CLDN9 (human, UniProt O95484 1-217)
T1 construct: whole, on cells; Transiently expressed on HEK293 cells
T1 sequence (looked up): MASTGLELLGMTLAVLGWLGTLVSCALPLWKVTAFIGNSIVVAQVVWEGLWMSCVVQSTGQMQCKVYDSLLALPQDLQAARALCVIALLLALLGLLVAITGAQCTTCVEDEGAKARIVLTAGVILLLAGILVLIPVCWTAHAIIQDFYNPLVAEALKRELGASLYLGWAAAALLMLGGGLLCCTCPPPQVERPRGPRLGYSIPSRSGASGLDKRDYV


How the values were obtained:
human CLDN18.2 [1] = biological target: T2, human CLDN18.2 (human); experiment: flow cytometry on HEK293 cells transiently transfected with human CLDN18.2 (column hCLDN18.2 EC50 (nM))
T2 construct: also called claudin 18 splice variant 2
Experimental: Therefore, the anti-CLDN18.2× anti-CD3 bsAbs were investigated for their binding to human CLDN18.2, cynomolgus CLDN18.2, and murine CLDN18.2. HEK293 cells were transiently transfected to express human, cynomolgus, or mouse CLDN18.2. 48 hours post transfection, cells were mixed with indicated concentrations of the bsAbs and incubated for 1 hour at 4° C. Cells were washed and then stained with a secondary Ab for 1 hour at 4° C. After two more washes, cells were analyzed on an Attune flow cytometer.

human CLDN18.2 [2] = biological target: T2, human CLDN18.2; experiment: flow cytometry on SNU-601 (2E4) cells (enriched for CLDN18.2), Alexa Fluor 647 anti-human IgG Fcγ secondary
Text: Control samples included bsAbs having murine CLDN18.2 ABDs, bivalent anti-CLDN18.2 mAbs, cells only, and secondary antibody only.

human CLDN9 = biological target: T1, human CLDN9; experiment: flow cytometry on HEK293 cells transiently transfected with human CLDN9, AF647 secondary antibody

| Binder | EC50 (human CLDN18.2 [1]) | EC50 (read off the curve) (human CLDN18.2 [2]) | binding result (human CLDN9) |
| --- | --- | --- | --- |
| XENP24647 (bispecific antibody, also called anti-CLDN18.2× anti-CD3 bsAb; Fab2-scFv) heavy: QVQLQQPGAELVRPGASVKLSCKASGYTFTSYWINWVKQRPGQGLEWIGNIYPSDSYTNYNQKFKDKATLTVDKSSSTAYMQLSSPTSEDSAVYYCTRSWRGNSFDYWGQGTTLTVSSASTKGPSVFPLAPSSKSTSGGTAALGCLVKDYFPEPVTVSWNSGALTSGVHTFPAVLQSSGLYSLSSVVTVPSSSLGTQTYICNVNHKPSDTKVDKKVEPKSCDKTHTCPPCPAPPVAGPSVFLFPPKPKDTLMISRTPEVTCVVVDVKHEDPEVKFNWYVDGVEVHNAKTKPREEEYNSTYRVVSVLTVLHQDWLNGKEYKCKVSNKALPAPIEKTISKAKGQPREPQVYTLPPSREEMTKNQVSLTCDVSGFYPSDIAVEWESDGQPENNYKTTPPVLDSDGSFFLYSKLTVDKSRWEQGDVFSCSVMHEALHNHYTQKSLSLSPGK QVQLQQPGAELVRPGASVKLSCKASGYTFTSYWINWVKQRPGQGLEWIGNIYPSDSYTNYNQKFKDKATLTVDKSSSTAYMQLSSPTSEDSAVYYCTRSWRGNSFDYWGQGTTLTVSSASTKGPSVFPLAPSSKSTSGGTAALGCLVKDYFPEPVTVSWNSGALTSGVHTFPAVLQSSGLYSLSSVVTVPSSSLGTQTYICNVNHKPSNTKVDKKVEPKSCGGGGSGGGGSEVQLVESGGGLVQPGGSLRLSCAASGFTFSTYAMNWVRQAPGKGLEWVGRIRSKYNNYATYYADSVKGRFTISRDDSKNTLYLQMNSLRAEDTAVYYCVRHGNFGDSYVSWFAYWGQGTLVTVSSGKPGSGKPGSGKPGSGKPGSQAVVTQEPSLTVSPGGTVTLTCGSSTGAVTTSNYANWVQQKPGKSPRGLIGGTNKRAPGVPARFSGSLLGGKAALTISGAQPEDEADYYCALWYSNHWVFGGGTKLTVLGGGGSGGGGSKTHTCPPCPAPPVAGPSVFLFPPKPKDTLMISRTPEVTCVVVDVKHEDPEVKFNWYVDGVEVHNAKTKPREEQYNSTYRVVSVLTVLHQDWLNGKEYKCKVSNKALPAPIEKTISKAKGQPREPQVYTLPPSREQMTKNQVKLTCLVKGFYPSDIAVEWESNGQPENNYKTTPPVLDSDGSFFLYSKLTVDKSRWQQGNVFSCSVMHEALHNHYTQKSLSLSPGK light: DIVMTQSPSSLTVTAGEKVTMSCKSSQSLLNSGNQKNYLTWYQQKPGQPPKLLIYWASTRESGVPDRFTGSGSGTDFTLTISSVQAEDLAVYYCQNDYSYPFTFGSGTKLEIKRTVAAPSVFIFPPSDEQLKSGTASVVCLLNNFYPREAKVQWKVDNALQSGNSQESVTEQDSKDSTYSLSSTLTLSKADYEKHKVYACEVTHQGLSSPVTKSFNRGEC | 4 nM | ~0.6 µg/mL | no binding (tested: 30000 ng/ml) |
| XENP24645 (bispecific antibody, expressed in HEK293E cells; also called anti-CLDN18.2× anti-CD3 bsAb; Fab-scFv) heavy: QVQLQQPGAELVRPGASVKLSCKASGYTFTSYWINWVKQRPGQGLEWIGNIYPSDSYTNYNQKFKDKATLTVDKSSSTAYMQLSSPTSEDSAVYYCTRSWRGNSFDYWGQGTTLTVSSASTKGPSVFPLAPSSKSTSGGTAALGCLVKDYFPEPVTVSWNSGALTSGVHTFPAVLQSSGLYSLSSVVTVPSSSLGTQTYICNVNHKPSDTKVDKKVEPKSCDKTHTCPPCPAPPVAGPSVFLFPPKPKDTLMISRTPEVTCVVVDVKHEDPEVKFNWYVDGVEVHNAKTKPREEEYNSTYRVVSVLTVLHQDWLNGKEYKCKVSNKALPAPIEKTISKAKGQPREPQVYTLPPSREEMTKNQVSLTCDVSGFYPSDIAVEWESDGQPENNYKTTPPVLDSDGSFFLYSKLTVDKSRWEQGDVFSCSVMHEALHNHYTQKSLSLSPGK not shown light: DIVMTQSPSSLTVTAGEKVTMSCKSSQSLLNSGNQKNYLTWYQQKPGQPPKLLIYWASTRESGVPDRFTGSGSGTDFTLTISSVQAEDLAVYYCQNDYSYPFTFGSGTKLEIKRTVAAPSVFIFPPSDEQLKSGTASVVCLLNNFYPREAKVQWKVDNALQSGNSQESVTEQDSKDSTYSLSSTLTLSKADYEKHKVYACEVTHQGLSSPVTKSFNRGEC | 145 nM |  | no binding (tested: 30000 ng/ml) |
| XENP24644 (antibody, V domains shown, also called H0L0 CLDN18.2; bivalent mAb) VH: QVQLQQPGAELVRPGASVKLSCKASGYTFTSYWINWVKQRPGQGLEWIGNIYPSDSYTNYNQKFKDKATLTVDKSSSTAYMQLSSPTSEDSAVYYCTRSWRGNSFDYWGQGTTLTVSS VL: DIVMTQSPSSLTVTAGEKVTMSCKSSQSLLNSGNQKNYLTWYQQKPGQPPKLLIYWASTRESGVPDRFTGSGSGTDFTLTISSVQAEDLAVYYCQNDYSYPFTFGSGTKLEIK | 4 nM | ~0.4 µg/mL | no binding (tested: 30000 ng/ml) |
| XENP29470 (antibody, V domains shown, also called H1L1 CLDN18.2 (printed H1LI); bivalent mAb) VH: EVQLVQSGAEVKKPGESLRISCKASGYTFTSYWINWVRQMPGKGLEWMGNIYPSDSYTNYNQKFQGHVTISVDKSISTAYLQWSSLKASDTAMYYCTRSWRGNSFDYWGQGTLVTVSS VL: DIVMTQSPDSLAVSLGERATINCKSSQSLLNSGNQKNYLTWYQQKPGQPPKLLIYWASTRESGVPDRFTGSGSGTDFTLTISSLQAEDVAVYYCQNDYSYPFTFGSGTKLEIK |  | ~0.5 µg/mL |  |

Now from value to binder:

| EC50 (human CLDN18.2 [1]) | EC50 (read off the curve) (human CLDN18.2 [2]) | binding result (human CLDN9) | Binder |
| --- | --- | --- | --- |
| 6 nM | ~0.5 µg/mL | no binding (tested: 30000 ng/ml) | XENP29476 (bispecific antibody, also called anti-CLDN18.2× anti-CD3 bsAb; Fab2-scFv) heavy: EVQLVQSGAEVKKPGESLRISCKASGYTFTSYWINWVRQMPGKGLEWMGNIYPSDSYTNYNQKFQGHVTISVDKSISTAYLQWSSLKASDTAMYYCTRSWRGNSFDYWGQGTLVTVSSASTKGPSVFPLAPSSKSTSGGTAALGCLVKDYFPEPVTVSWNSGALTSGVHTFPAVLQSSGLYSLSSVVTVPSSSLGTQTYICNVNHKPSDTKVDKKVEPKSCDKTHTCPPCPAPPVAGPSVFLFPPKPKDTLMISRTPEVTCVVVDVKHEDPEVKFNWYVDGVEVHNAKTKPREEEYNSTYRVVSVLTVLHQDWLNGKEYKCKVSNKALPAPIEKTISKAKGQPREPQVYTLPPSREEMTKNQVSLTCDVSGFYPSDIAVEWESDGQPENNYKTTPPVLDSDGSFFLYSKLTVDKSRWEQGDVFSCSVMHEALHNHYTQKSLSLSPGK EVQLVQSGAEVKKPGESLRISCKASGYTFTSYWINWVRQMPGKGLEWMGNIYPSDSYTNYNQKFQGHVTISVDKSISTAYLQWSSLKASDTAMYYCTRSWRGNSFDYWGQGTLVTVSSASTKGPSVFPLAPSSKSTSGGTAALGCLVKDYFPEPVTVSWNSGALTSGVHTFPAVLQSSGLYSLSSVVTVPSSSLGTQTYICNVNHKPSNTKVDKKVEPKSCGGGGSGGGGSEVQLVESGGGLVQPGGSLRLSCAASGFTFSTYAMNWVRQAPGKGLEWVGRIRSKYNNYATYYADSVKGRFTISRDDSKNTLYLQMNSLRAEDTAVYYCVRHGNFGDSYVSWFAYWGQGTLVTVSSGKPGSGKPGSGKPGSGKPGSQAVVTQEPSLTVSPGGTVTLTCGSSTGAVTTSNYANWVQQKPGKSPRGLIGGTNKRAPGVPARFSGSLLGGKAALTISGAQPEDEADYYCALWYSNHWVFGGGTKLTVLGGGGSGGGGSKTHTCPPCPAPPVAGPSVFLFPPKPKDTLMISRTPEVTCVVVDVKHEDPEVKFNWYVDGVEVHNAKTKPREEQYNSTYRVVSVLTVLHQDWLNGKEYKCKVSNKALPAPIEKTISKAKGQPREPQVYTLPPSREQMTKNQVKLTCLVKGFYPSDIAVEWESNGQPENNYKTTPPVLDSDGSFFLYSKLTVDKSRWQQGNVFSCSVMHEALHNHYTQKSLSLSPGK light: not shown |
| 146 nM |  | no binding (tested: 30000 ng/ml) | XENP29472 (bispecific antibody, also called anti-CLDN18.2× anti-CD3 bsAb; Fab-scFv) heavy: EVQLVQSGAEVKKPGESLRISCKASGYTFTSYWINWVRQMPGKGLEWMGNIYPSDSYTNYNQKFQGHVTISVDKSISTAYLQWSSLKASDTAMYYCTRSWRGNSFDYWGQGTLVTVSSASTKGPSVFPLAPSSKSTSGGTAALGCLVKDYFPEPVTVSWNSGALTSGVHTFPAVLQSSGLYSLSSVVTVPSSSLGTQTYICNVNHKPSDTKVDKKVEPKSCDKTHTCPPCPAPPVAGPSVFLFPPKPKDTLMISRTPEVTCVVVDVKHEDPEVKFNWYVDGVEVHNAKTKPREEEYNSTYRVVSVLTVLHQDWLNGKEYKCKVSNKALPAPIEKTISKAKGQPREPQVYTLPPSREEMTKNQVSLTCDVSGFYPSDIAVEWESDGQPENNYKTTPPVLDSDGSFFLYSKLTVDKSRWEQGDVFSCSVMHEALHNHYTQKSLSLSPGK not shown light: not shown |
|  | ~0.9 µg/mL |  | XENP29471 (antibody, V domains shown, also called H2L1 CLDN18.2; bivalent mAb) VH: QVQLVQSGAEVKKPGASVKVSCKASGYTFTSYWINWVRQAPGQGLEWMGNIYPSDSYTNYNQKFQGRVTMTVDKSTSTAYMELSSLRSEDTAVYYCTRSWRGNSFDYWGQGTLVTVSS VL: DIVMTQSPDSLAVSLGERATINCKSSQSLLNSGNQKNYLTWYQQKPGQPPKLLIYWASTRESGVPDRFTGSGSGTDFTLTISSLQAEDVAVYYCQNDYSYPFTFGSGTKLEIK |
